Measured values taken from PMC5539093, “Functional Characterization of Four Putative δ^1-Pyrroline-5-Carboxylate Reductases from Bacillus subtilis” (Frontiers in Microbiology, 2017).
Blank lines part the entries; values can stand above or below the molecule they belong to.

Tests used:
[1] = biological target: T1, ProH (Bacillus subtilis, UniProt P0CI77); test: NAD(P)H oxidation at […] nm; type: biochemical
T1 construct: full-length; pMCSG68, N-terminal His6-TEV tag removed; E. coli BL21 Gold; homodimer by SAXS

[2] = biological target: T2, ProG (Bacillus subtilis, UniProt Q00777); test: NAD(P)H oxidation at […] nm; type: biochemical
T2 construct: full-length; pMCSG68, N-terminal His6-TEV tag removed; E. coli BL21 Gold; homodimer by SAXS

[3] = biological target: T3, ComER (Bacillus subtilis, UniProt P39696); test: NAD(P)H oxidation at […] nm; type: biochemical
T3 construct: full-length; pMCSG68, N-terminal His6-TEV tag removed; E. coli BL21 Gold; monomer by SAXS

[4] = biological target: T4, ProI (Bacillus subtilis, UniProt P54552); test: NAD(P)H oxidation at […] nm; type: biochemical
T4 construct: full-length; pMCSG68, N-terminal His6-TEV tag removed; E. coli BL21 Gold; homodimer by SAXS

[5] = substrate: NC(=O)C1=CN([C@@H]2O[C@H](COP(=O)(O)OP(=O)(O)OC[C@H]3O[C@@H](n4cnc5c(N)ncnc54)[C@H](O)[C@@H]3O)[C@@H](O)[C@H]2O)C=CC1; test: purified protein; type: biochemical, Bacillus subtilis; conditions: 1 mM L-P5C, 20 mM Tris-HCl pH 7.0, 30°C
[6] = substrate: O=C(O)[C@@H]1CCC=N1; test: purified protein; type: biochemical, Bacillus subtilis; conditions: 0.5 mM NADPH, 20 mM Tris-HCl pH 7.0, 30°C
[7] = substrate: NC(=O)C1=CN([C@@H]2O[C@H](COP(=O)(O)OP(=O)(O)OC[C@H]3O[C@@H](n4cnc5c(N)ncnc54)[C@H](OP(=O)(O)O)[C@@H]3O)[C@@H](O)[C@H]2O)C=CC1; test: purified protein; type: biochemical, Bacillus subtilis; conditions: 1 mM L-P5C, 20 mM Tris-HCl pH 7.0, 30°C, kcat per monomer
[8] = biological target: the molecule itself; test: small-angle X-ray scattering (SAXS) in line with SEC; each native protein at 5 mg mL^-1 loaded onto a Superdex 200 column in 20 mM HEPES pH 8.0, 150 mM NaCl, 2 mM TCEP, routed into the flow cell; oligomeric state from mass, Rg, Dmax and ab initio envelope

IC50 [1]: 41.4 ± 4.2 mM | IC50 [2]: 22.3 ± 2.1 mM
Molecule: O=C(O)[C@@H]1CCCN1 [proline]

IC50 [1]: 44.5 ± 11.6 mM | IC50 [3]: 29.7 ± 3.7 mM | IC50 [4]: 6.22 ± 0.6 mM
Molecule: NC(=O)c1ccc[n+]([C@@H]2O[C@H](COP(=O)(O)OP(=O)(O)OC[C@H]3O[C@@H](n4cnc5c(N)ncnc54)[C@H](O)[C@@H]3O)[C@@H](O)[C@H]2O)c1 [NAD^+]

IC50 [1]: 0.66 ± 0.1 mM | IC50 [3]: 0.48 ± 0.07 mM | IC50 [4]: 0.34 ± 0.04 mM | IC50 [2]: 0.23 ± 0.03 mM
Molecule: NC(=O)c1ccc[n+]([C@@H]2O[C@H](COP(=O)(O)OP(=O)(O)OC[C@H]3O[C@@H](n4cnc5c(N)ncnc54)[C@H](OP(=O)(O)O)[C@@H]3O)[C@@H](O)[C@H]2O)c1 [NADP^+]

B1: ComER (Bacillus subtilis subsp. subtilis str. 168) (protein)
chain: MKIGFIGTGNMGTILIESFIESKAADPSNMTITNRTIEKALHIKNRYNSINVTESLEKLVSENEMIFICVKPLDIYPLLARALPYLRKDHILISITSPVQTEQLEQYVPCQVARVIPSITNRALAGVSLVTFGTSCGESAKAKINELMQHISHPLQIESDITRVASDIVSCGPAFMSYLIQRFIDAAVSETSVSKQDAILMCKEMLVGMGKLLETELYTLPALQEKVCVKGGVTGEGIKALESGVQDMFHRVFQNTHMKYEEDISAVKKQFHV
notes: full-length; pMCSG68, N-terminal His6-TEV tag removed; E. coli BL21 Gold; monomer by SAXS
Km ([5]; kcat per monomer): 226 ± 14 µM | kcat ([5]; kcat per monomer): 0.06 s⁻¹ | kcat/Km ([5]; kcat per monomer): 270 M⁻¹ s⁻¹ | Km ([6]; kcat per monomer): 3150 ± 1420 µM | kcat ([6]; kcat per monomer): 0.09 s⁻¹ | Km [7]: 1.2 ± 0.4 µM | kcat [7]: 0.09 s⁻¹ | kcat/Km [7]: 75000 M⁻¹ s⁻¹

B2: ProH, putative δ1-pyrroline-5-carboxylate (P5C) reductase from Bacillus subtilis (enzyme, Bacillus subtilis strain 168, UniProt P0CI77 1-297, looked up)
chain: MRTKKRTKEMLPIFDQKKVAFIGAGSMAEGMISGIVRANKIPKQNICVTNRSNTERLTELELQYGIKGALPNQLCIEDMDVLILAMKPKDAENALSSLKSRIQPHQLILSVLAGITTSFIEQSLLNEQPVVRVMPNTSSMIGASATAIALGKYVSEDLKKLAEALLGCMGEVYTIQENQMDIFTGIAGSGPAYFYYLMEFIEKTGEEAGLDKQLSRSIGAQTLLGAAKMLMETGEHPEILRDNITSPNGTTAAGLQALKKSGGGEAISQAIKHAAKRSKEISEDIEKTAAPLSGVIK
notes: ProH, putative P5C reductase, Bacillus subtilis strain 168; calculated mass 32.03 kDa; Cloned in pMCSG68 (His6 tag and TEV site at the N-terminus); also called P5C reductase ProH; source: E. coli BL21 Gold, purified (Ni-NTA, TEV cleavage, second Ni-NTA, SEC on Superdex 200); not shown: His6, N-terminal, cleaved
stoichiometry N [8]: 2

B3: ProI, putative δ1-pyrroline-5-carboxylate (P5C) reductase from Bacillus subtilis (enzyme, Bacillus subtilis strain 168, UniProt P54552 1-278, looked up)
chain: MKKIGFVGAGSMAEAMINGILQSGITKPEHIYITNRSNDERLIELKETYSVRPCRDKNEFFTHTDIIILAFKPKDAAESIDSIRPYIKDQLVISVLAGLTIETIQHYFGRKLAVIRVMPNTSAAIRKSATGFSVSTEASKNDIIAAKALLETIGDATLVEERHLDAVTAIAGSGPAYVYRYIEAMEKAAQKVGLDKETAKALILQTMAGATDMLLQSGKQPEKLRKEITSPGGTTEAGLRALQDSRFEEAIIHCIEETAKRSAEIKEQFAGAALERHS
notes: ProI, putative P5C reductase, Bacillus subtilis strain 168; calculated mass 30.90 kDa; Cloned in pMCSG68 (His6 tag and TEV site at the N-terminus); also called P5C reductase ProI; source: E. coli BL21 Gold, purified (Ni-NTA, TEV cleavage, second Ni-NTA, SEC on Superdex 200); not shown: His6, N-terminal, cleaved
stoichiometry N [8]: 2 | Km ([5]; kcat per monomer): 1,810 ± 480 μM | kcat ([5]; kcat per monomer): 0.28 s⁻¹ | kcat/Km ([5]; kcat per monomer): 150 M⁻¹ s⁻¹ | Km [6]: 203 ± 30 µM | Km [7]: 51.8 ± 2.8 µM | kcat [7]: 0.14 s⁻¹ | kcat/Km [7]: 2600 M⁻¹ s⁻¹

B4: ProG, putative δ1-pyrroline-5-carboxylate (P5C) reductase from Bacillus subtilis (enzyme, Bacillus subtilis strain 168, UniProt Q00777 1-272, looked up)
chain: MEQIGLIGYGSMADMIARQLLKHEQIKENELFIETRTKGERLRALMSDYPNVSADPLENWANTCQLILICVPPLHVIETMRRLYPYVNRNTHIVSIAAGVPLRLLEAETEAGISRVIPAITSEAEAGISLVVHSEALAAEKKERLNELLSVFSRVREIKESNLDVASNLTSSAPGFIAAIFEELALSAVRNSSLSKEEAFDFLIHSLYGTGKMLIEKNMSFEETLERVATKGGITGEGAEVIHASVPDVFDEVFERTLRKYELLTEQVGKQT
notes: ProG, putative P5C reductase, Bacillus subtilis strain 168; calculated mass 30.20 kDa; Cloned in pMCSG68 (His6 tag and TEV site at the N-terminus); also called P5C reductase ProG; source: E. coli BL21 Gold, purified (Ni-NTA, TEV cleavage, second Ni-NTA, SEC on Superdex 200); not shown: His6, N-terminal, cleaved
stoichiometry N [8]: 2 | Km [6]: 64.9 ± 8.1 µM | Km [7]: 232 ± 18 µM | kcat [7]: 19 s⁻¹ | kcat/Km [7]: 84000 M⁻¹ s⁻¹

B5: ProH (Bacillus subtilis subsp. subtilis str. 168) (protein)
chain: MRTKKRTKEMLPIFDQKKVAFIGAGSMAEGMISGIVRANKIPKQNICVTNRSNTERLTELELQYGIKGALPNQLCIEDMDVLILAMKPKDAENALSSLKSRIQPHQLILSVLAGITTSFIEQSLLNEQPVVRVMPNTSSMIGASATAIALGKYVSEDLKKLAEALLGCMGEVYTIQENQMDIFTGIAGSGPAYFYYLMEFIEKTGEEAGLDKQLSRSIGAQTLLGAAKMLMETGEHPEILRDNITSPNGTTAAGLQA
notes: full-length; pMCSG68, N-terminal His6-TEV tag removed; E. coli BL21 Gold; homodimer by SAXS
Km [5]: 786 ± 36 µM | Km [7]: 13.6 ± 2.6 µM | kcat [7]: 814 s⁻¹ | kcat/Km [7]: 6.3e+07 M⁻¹ s⁻¹
